This is an account of results in US20110104194A1 (NEW YORK UNIVERSITY, published 2011).

For one assay, the target named is T1, elastin (human lung) (human, UniProt P15502 27-786).
T1 sequence: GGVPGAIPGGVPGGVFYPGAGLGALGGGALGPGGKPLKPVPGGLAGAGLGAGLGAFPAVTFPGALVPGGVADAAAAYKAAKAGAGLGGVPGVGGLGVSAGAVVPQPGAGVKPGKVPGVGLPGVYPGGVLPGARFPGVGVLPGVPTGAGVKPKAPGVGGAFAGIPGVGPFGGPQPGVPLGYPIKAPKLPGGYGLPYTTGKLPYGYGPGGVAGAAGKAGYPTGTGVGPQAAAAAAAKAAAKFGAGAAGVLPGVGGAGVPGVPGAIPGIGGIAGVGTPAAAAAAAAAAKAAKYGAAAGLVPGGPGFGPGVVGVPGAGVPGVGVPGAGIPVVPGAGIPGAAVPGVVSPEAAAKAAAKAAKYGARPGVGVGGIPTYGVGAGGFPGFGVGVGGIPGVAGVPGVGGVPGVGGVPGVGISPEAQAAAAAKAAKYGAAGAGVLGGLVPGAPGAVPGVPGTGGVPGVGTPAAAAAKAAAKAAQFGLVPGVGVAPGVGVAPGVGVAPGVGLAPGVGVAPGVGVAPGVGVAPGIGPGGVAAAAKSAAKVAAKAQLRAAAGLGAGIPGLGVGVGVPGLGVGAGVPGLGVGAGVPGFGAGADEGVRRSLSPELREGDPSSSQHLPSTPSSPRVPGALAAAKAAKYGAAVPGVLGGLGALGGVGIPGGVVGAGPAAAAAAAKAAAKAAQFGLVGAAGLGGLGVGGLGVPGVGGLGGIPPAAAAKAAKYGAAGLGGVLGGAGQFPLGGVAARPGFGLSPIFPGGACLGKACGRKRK
Kind of assay: western blot overlay of rPTRP with ECM protein; same result by ELISA. For orientation: Immunoblotting shows a protein as a band on a membrane.

For the next assay, the target named is T2, human collagen I (human, UniProt P02452 162-1218; P08123 80-1119).
T2 construct: Chemicon; also called Col I
Described as above.

Assay [1] deals with T3, collagen II (human cartilage) (human, UniProt P02458 182-1241).
T3 construct: Chemicon; also called Col II
T3 sequence (P02458 182-1241 limits assumed): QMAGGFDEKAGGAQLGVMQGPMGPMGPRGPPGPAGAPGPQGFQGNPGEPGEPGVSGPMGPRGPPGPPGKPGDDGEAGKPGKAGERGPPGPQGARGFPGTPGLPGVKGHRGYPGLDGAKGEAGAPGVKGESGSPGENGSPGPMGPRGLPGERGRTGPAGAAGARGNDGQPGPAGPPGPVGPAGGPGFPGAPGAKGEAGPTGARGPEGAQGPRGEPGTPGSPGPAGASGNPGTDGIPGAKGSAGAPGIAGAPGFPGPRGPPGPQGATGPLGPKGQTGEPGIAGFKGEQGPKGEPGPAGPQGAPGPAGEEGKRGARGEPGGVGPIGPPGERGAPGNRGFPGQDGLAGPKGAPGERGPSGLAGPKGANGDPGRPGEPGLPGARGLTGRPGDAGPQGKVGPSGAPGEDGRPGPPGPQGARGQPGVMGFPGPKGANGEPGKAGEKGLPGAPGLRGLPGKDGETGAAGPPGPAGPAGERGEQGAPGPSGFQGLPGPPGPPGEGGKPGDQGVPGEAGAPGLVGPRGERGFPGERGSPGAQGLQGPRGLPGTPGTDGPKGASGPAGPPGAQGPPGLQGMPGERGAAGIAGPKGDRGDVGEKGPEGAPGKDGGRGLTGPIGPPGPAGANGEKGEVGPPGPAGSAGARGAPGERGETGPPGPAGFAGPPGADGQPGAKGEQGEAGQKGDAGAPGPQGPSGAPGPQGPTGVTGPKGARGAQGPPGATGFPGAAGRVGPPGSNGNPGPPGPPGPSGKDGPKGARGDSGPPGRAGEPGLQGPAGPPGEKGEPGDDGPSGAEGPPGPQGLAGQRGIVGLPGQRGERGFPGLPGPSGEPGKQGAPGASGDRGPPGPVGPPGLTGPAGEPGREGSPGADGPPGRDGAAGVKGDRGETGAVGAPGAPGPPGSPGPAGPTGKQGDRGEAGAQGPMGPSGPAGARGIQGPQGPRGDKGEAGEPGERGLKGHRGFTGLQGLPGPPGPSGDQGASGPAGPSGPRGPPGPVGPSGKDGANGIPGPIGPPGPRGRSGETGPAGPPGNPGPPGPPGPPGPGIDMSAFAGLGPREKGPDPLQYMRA
Described as above.

The target of assay [2] is T4, collagen III (human placenta) (human, UniProt P02461 154-1221).
T4 construct: Chemicon; also called Col III
T4 sequence: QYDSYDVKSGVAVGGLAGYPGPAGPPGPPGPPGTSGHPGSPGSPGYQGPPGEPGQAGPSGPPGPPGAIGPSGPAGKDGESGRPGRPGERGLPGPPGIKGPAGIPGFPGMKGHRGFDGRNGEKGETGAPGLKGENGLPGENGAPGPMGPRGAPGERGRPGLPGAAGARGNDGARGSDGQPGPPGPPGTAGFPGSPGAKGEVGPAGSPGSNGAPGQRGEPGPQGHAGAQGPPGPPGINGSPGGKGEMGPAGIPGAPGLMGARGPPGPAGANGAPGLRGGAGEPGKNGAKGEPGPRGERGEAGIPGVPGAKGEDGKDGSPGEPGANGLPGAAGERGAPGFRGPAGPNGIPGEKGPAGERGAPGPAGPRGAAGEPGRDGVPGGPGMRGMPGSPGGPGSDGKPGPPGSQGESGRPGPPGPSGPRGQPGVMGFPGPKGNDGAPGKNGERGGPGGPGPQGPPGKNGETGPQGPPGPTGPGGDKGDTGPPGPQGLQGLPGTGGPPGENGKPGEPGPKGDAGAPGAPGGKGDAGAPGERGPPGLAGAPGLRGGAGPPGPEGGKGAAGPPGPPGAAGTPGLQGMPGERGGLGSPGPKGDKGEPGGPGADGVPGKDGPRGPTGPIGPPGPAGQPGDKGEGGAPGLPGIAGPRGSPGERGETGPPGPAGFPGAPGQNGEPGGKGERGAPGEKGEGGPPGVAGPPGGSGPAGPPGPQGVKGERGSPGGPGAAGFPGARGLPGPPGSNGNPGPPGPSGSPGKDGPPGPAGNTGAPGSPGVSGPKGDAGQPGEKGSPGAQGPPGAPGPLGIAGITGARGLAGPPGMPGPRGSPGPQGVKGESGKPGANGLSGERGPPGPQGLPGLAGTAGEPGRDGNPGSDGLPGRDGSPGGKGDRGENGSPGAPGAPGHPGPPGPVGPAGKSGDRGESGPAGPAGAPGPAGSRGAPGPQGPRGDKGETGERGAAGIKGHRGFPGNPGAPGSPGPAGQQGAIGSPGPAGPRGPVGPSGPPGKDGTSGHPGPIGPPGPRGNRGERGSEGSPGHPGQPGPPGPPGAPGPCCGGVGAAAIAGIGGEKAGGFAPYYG
Described as above.

Assay [3] deals with T5, collagen IV (human placenta) (human, UniProt P02462 28-1669; P08572 26-1712).
T5 construct: Chemicon; also called Col IV
T5 sequence (P02462 28-1669, chain 1 of 2): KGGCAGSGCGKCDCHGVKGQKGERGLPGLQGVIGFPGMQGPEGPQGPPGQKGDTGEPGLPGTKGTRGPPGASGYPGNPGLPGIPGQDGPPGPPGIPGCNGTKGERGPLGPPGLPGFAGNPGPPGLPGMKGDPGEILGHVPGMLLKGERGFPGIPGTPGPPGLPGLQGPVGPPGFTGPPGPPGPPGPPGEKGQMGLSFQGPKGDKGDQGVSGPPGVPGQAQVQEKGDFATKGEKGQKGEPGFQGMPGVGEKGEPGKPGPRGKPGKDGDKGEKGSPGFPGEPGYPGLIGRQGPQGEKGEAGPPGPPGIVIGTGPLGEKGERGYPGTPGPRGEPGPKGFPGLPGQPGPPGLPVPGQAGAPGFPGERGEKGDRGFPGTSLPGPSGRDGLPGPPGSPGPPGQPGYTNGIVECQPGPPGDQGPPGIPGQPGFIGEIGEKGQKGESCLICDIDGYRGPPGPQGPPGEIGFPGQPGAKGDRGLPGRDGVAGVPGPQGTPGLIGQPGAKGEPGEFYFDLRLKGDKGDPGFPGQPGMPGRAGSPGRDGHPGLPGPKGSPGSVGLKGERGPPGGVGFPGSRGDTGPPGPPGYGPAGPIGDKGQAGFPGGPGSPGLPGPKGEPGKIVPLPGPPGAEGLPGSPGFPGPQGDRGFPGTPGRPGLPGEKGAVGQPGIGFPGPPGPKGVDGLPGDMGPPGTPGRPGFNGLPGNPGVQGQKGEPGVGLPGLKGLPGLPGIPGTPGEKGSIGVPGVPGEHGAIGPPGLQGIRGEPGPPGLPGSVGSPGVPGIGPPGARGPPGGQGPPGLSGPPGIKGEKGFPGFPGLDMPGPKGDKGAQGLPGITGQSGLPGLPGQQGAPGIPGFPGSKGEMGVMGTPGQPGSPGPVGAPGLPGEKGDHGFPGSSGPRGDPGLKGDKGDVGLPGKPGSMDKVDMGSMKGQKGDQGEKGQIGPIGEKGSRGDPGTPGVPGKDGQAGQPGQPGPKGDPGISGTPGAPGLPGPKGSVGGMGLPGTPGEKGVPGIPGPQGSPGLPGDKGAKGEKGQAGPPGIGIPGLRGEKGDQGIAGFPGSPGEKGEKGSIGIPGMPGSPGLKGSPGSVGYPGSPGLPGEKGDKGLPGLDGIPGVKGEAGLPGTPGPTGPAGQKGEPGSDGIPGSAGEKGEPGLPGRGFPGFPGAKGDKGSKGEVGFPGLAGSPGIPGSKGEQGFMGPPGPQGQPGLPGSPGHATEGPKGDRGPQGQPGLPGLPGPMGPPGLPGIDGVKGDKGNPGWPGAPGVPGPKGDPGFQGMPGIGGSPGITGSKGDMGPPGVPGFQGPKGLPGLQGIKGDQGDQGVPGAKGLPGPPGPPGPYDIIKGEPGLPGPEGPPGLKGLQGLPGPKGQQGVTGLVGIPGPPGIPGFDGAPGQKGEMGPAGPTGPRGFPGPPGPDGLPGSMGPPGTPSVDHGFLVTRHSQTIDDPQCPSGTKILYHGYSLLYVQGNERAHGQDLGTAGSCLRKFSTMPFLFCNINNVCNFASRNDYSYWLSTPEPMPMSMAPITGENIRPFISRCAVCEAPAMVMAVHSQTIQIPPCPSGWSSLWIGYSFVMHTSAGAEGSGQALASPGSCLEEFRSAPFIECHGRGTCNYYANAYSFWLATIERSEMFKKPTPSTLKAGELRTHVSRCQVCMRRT
T5 sequence (P08572 26-1712, chain 2 of 2): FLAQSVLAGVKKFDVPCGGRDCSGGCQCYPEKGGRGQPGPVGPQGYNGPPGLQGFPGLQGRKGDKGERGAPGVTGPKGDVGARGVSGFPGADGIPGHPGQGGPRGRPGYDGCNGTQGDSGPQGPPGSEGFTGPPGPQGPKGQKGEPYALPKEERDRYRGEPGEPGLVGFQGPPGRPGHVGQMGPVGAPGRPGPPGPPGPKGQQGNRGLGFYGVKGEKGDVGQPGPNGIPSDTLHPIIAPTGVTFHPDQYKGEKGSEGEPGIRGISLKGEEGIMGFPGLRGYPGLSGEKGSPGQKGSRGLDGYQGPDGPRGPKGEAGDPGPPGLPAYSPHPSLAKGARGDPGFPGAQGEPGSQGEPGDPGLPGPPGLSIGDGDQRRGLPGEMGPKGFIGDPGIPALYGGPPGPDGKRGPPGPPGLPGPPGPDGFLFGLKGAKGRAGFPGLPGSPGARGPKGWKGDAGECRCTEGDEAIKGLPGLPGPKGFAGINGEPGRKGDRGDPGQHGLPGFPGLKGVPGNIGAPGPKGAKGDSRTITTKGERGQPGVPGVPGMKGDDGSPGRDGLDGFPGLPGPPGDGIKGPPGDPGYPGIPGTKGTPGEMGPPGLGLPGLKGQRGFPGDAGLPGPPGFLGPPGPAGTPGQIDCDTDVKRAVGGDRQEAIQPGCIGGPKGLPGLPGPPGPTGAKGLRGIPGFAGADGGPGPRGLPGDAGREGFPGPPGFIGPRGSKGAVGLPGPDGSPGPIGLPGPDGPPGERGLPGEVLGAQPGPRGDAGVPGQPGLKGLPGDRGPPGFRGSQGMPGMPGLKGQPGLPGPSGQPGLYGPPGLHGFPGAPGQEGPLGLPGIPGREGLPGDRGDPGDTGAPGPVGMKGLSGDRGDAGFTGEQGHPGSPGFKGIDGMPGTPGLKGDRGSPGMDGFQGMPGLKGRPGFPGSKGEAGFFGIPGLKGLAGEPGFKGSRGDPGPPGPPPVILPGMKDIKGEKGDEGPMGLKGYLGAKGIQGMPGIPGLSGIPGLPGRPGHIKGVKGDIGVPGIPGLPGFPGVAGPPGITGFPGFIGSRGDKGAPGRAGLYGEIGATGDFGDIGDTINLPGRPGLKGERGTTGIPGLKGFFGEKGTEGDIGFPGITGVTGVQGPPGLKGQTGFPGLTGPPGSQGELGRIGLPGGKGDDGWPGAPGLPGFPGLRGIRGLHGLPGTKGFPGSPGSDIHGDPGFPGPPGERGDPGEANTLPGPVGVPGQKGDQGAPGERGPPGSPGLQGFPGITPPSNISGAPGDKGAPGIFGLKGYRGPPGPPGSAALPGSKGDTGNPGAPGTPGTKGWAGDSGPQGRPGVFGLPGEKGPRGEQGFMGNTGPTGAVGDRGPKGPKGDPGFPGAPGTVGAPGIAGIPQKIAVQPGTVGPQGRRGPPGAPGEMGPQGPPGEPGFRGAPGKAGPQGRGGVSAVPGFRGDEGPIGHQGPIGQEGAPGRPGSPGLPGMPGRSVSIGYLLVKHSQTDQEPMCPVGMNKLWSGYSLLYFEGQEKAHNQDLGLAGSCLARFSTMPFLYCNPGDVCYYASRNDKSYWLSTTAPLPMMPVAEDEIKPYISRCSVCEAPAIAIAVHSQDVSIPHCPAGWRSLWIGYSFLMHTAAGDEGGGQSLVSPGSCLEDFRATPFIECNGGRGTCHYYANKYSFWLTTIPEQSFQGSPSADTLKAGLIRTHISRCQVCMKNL
Described as above.

The target of assay [4] is vitronectin (human plasma) (human, UniProt P04004 20-478). The description is as above.
Sequence of vitronectin (human plasma) (P04004 20-478 limits assumed): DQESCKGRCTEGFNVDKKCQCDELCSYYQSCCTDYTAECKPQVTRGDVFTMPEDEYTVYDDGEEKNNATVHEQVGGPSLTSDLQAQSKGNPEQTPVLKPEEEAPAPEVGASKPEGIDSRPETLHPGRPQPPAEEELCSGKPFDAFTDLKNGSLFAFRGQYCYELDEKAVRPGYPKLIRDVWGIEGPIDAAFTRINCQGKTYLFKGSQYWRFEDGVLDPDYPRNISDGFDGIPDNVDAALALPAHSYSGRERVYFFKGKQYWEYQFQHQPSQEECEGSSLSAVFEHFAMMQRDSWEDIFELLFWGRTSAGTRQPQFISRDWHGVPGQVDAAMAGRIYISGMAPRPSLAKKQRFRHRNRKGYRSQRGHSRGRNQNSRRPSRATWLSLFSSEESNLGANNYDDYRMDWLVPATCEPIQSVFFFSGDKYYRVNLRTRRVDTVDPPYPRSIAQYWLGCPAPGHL
Assay [5] concerns the target T6, fibrinogen (human plasma) (human, UniProt P02671 20-629; P02675 31-491; P02679 27-437).
T6 sequence 1: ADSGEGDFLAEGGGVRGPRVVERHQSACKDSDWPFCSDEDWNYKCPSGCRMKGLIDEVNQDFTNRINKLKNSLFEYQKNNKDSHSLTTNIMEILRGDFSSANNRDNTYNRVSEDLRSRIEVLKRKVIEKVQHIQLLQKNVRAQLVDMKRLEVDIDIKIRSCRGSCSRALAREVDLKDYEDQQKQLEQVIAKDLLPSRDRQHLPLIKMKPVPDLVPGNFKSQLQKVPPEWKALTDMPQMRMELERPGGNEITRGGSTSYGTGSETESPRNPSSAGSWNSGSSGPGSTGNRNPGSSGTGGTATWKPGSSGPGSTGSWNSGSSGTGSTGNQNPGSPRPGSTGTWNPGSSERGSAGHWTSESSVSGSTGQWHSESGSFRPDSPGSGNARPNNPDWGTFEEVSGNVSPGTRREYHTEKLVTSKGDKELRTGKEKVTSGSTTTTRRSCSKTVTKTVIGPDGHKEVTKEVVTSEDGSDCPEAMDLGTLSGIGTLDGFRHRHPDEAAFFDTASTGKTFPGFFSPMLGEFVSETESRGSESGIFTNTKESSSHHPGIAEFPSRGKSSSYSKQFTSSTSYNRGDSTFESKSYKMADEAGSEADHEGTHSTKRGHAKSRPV
T6 sequence 2: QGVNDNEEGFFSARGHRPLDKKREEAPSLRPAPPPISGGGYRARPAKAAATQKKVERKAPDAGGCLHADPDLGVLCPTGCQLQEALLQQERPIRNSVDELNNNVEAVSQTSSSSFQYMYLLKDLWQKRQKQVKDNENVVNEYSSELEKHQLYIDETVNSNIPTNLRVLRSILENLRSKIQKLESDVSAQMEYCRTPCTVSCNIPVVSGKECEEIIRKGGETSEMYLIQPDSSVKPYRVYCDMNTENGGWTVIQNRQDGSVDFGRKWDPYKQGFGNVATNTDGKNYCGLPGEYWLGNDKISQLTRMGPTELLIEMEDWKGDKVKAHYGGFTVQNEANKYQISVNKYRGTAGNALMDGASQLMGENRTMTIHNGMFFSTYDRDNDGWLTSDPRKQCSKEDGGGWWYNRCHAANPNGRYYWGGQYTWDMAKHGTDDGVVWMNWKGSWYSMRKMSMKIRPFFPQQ
T6 sequence 3: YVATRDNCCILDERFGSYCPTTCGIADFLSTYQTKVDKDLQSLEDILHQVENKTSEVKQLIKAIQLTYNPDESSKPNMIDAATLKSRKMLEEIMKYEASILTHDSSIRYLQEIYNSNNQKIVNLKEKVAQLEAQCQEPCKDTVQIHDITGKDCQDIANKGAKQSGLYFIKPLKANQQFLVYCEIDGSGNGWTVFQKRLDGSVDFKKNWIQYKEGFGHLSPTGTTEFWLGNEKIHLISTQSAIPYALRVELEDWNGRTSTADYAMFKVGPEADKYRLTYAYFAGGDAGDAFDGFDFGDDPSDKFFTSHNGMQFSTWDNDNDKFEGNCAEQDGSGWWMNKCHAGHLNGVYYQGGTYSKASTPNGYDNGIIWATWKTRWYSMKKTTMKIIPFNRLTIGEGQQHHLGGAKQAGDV
The description is as above.

For assay [6], the target named is Thrombospondin (human platelet) (human, UniProt P07996 19-1170). Kind of assay: western blot overlay: rPTRP on the blot, ECM protein 5 µg/ml, anti-ECM antibody.

B1: purified recombinant PTRP (rPTRP), GST tag cleaved (other)
chain: MDVALGVAVTDRVARLALVDSAAPGTVIDQFVLDVAEHPVEVLTETVVGTDRSLAGENHRLVATRLCWPDQAKADELQHALQDSGVHDVAVISEAQAATALVGAAHAGSAVLLVGDETATLSVVGDPDAPPTMVAVAPVAGADATSTVDTLMARLGDQALAPGDVFLVGRSAEHTTVLADQLRAASTMRVQTPDDPTFALARGAAMAAGAATMAHPALVADATTSLPRAEAGQSGSEGEQLAYSQASDYELLPVDEYEEHDEYGAAADRSAPLSRRSLLIGNAVVAFAVIGFASLAVAVAVTIRPTAASKPVEGHQNAQPGKFMPLLPTQQQAPVPPPPPDDPTAGFQGGTIPAVQNVVPRPGTSPGVGGTPASPAPEAPAVPGVVPAPVPIPVPIIIPPFPGWQPGMPTIPTAPPTTPVTTSATTPPTTPPTTPVTTPPTTPPTTPVTTPPTTPPTTPVTTPPTTVAPTTVAPTTVAPTTVAPTTVAPATATPTTVAPQPTQQPTQQPTQQMPTQQQTVAPQTVAPAPQPPSGGRNGSGGGDLFGGF
notes: also called Proline-Threonine Repetitive Protein; Rv0538
For B1, the binding result (with elastin (human lung); in the assay with human collagen I; in assay [1]; in assay [2]; in assay [3]; in assay [4]) was “no binding (tested: 5 µg/ml)” each time. For the same molecule, the binding result in assay [5] was “no binding (tested: 5 µg/ml)”; in assay [6], “binds”.
